Measurements: patent US20240084017A1 (ASCENDO BIOTECHNOLOGY, published 2024)

Key:
[1] = molecular target: T1, human Mac-1 (integrin αMβ2, CD11b/CD18) (human, UniProt P11215 17-1152; P05107 23-769); assay: flow cytometry, HEK293/Mac-1 cells (clone 1-4), PBS (Mock)
Protocol: (§1) The HEK293/Mac-1 cells (clone1-4) were counted and washed twice with staining buffer (PBS containing 1% FBS, and 0.1% sodium azide). Cells were adjusted at a concentration of 1×10⁵ cells/ml in staining buffer and treated with/without 0.25 mM MnCl₂ (Sigma). Cells were treated with anti-Mac-1 antibodies and fluorescent conjugated anti-human IgG4 antibodies and incubated for 15 mins. After washing with the staining buffer, the cells were analyzed by flow cytometry. In some examples, these cells were treated with the antibodies (ICRF44, KIM127, m24, or isotype control) in the presence or absence 10 μg/ml anti-Mac-1 antibodies. The cells were then incubated at 37° C. for 30 min. After washing with the staining buffer, the cells were analyzed by flow cytometry.
(§2) TABLE II The anti-Mac-1 antibodies selectively bind to different statuses of human Mac-1. HEK293/Mac-1 cells (clone1-4) were incubated in PBS (Mock), or PBS/MnCl₂ (Mn²⁺). Binding of isotype control IgG, the CD11b specific mAb (ICRF44), the CD11b activation-sensing mAb (CBRM1/5), or the screened anti-Mac-1 antibody was detected using flow cytometry.

[2] = molecular target: T1, human Mac-1 (integrin αMβ2, CD11b/CD18); assay: flow cytometry, HEK293/Mac-1 cells (clone 1-4), PBS/MnCl2 (Mn2+)
Protocol: as §1, §2

[3] = molecular target: T1, human Mac-1 (integrin αMβ2, CD11b/CD18); assay: flow cytometry, HEK293/Mac-1 cells, PBS/MnCl2 (Mn2+), 10 µg/ml of this antibody; binding of reporter mAb m24 read
Protocol: as §1
(§3) TABLE IV The anti-Mac-1 antibody can serve as an antagonist to reduce the conformational change of Mac-1. HEK293/Mac-1 cells (clone1-4) were incubated with 10 μg/ml anti-Mac-1 antibodies under the PBS/MnCl₂ (Mn²⁺) condition. Binding of KIM127 or m24 was detected using flow cytometry.

[4] = molecular target: T1, human Mac-1 (integrin αMβ2, CD11b/CD18); assay: flow cytometry, HEK293/Mac-1 cells, PBS (Mock), 10 µg/ml of this antibody; binding of reporter mAb KIM127 read
Protocol: as §1
(§4) TABLE III The anti-Mac-1 antibodies can serve as agonist to enhance the conformational change of Mac-1. HEK293/Mac-1 cells (clone1-4) were incubated with 10 μg/ml anti-Mac-1 antibodies under the PBS (Mock) condition. Binding of KIM127 or m24 was detected using flow cytometry.

[5] = molecular target: T1, human Mac-1 (integrin αMβ2, CD11b/CD18); assay: flow cytometry, HEK293/Mac-1 cells; MFI in PBS over MFI in PBS/MnCl2
Protocol: as §1, §2

[6] = molecular target: T1, human Mac-1 (integrin αMβ2, CD11b/CD18); assay: flow cytometry, HEK293/Mac-1 cells, PBS (Mock), 10 µg/ml of this antibody; binding of reporter mAb m24 read
Protocol: as §1, §4

[7] = molecular target: T1, human Mac-1 (integrin αMβ2, CD11b/CD18); assay: flow cytometry, HEK293/Mac-1 cells, PBS/MnCl2 (Mn2+), 10 µg/ml of this antibody; binding of reporter mAb KIM127 read
Protocol: as §1, §3

Mock MFI [1] [MFI]	Mn^2+ MFI [2] [MFI]	m24 (Expression relative to IgG4) [3]	KIM127 (Expression relative to IgG4) [4]	Mock/Mn^2+ Ratio [5]	m24 (Expression relative to IgG4) [6]	KIM127 (Expression relative to IgG4) [7]	Binder
53400	56400	0.85 relative to IgG4	0.98 relative to IgG4	0.95	0.63 relative to IgG4	0.65 relative to IgG4	anti-Mac-1 antibody clone 28E07 (antibody, human IgG4, V domains shown) VH: QVQLQQSGPELVKPGASVKISCKASGYSFTDYNMNWVKQSNGKSLEWIGEINPGYGTSRYNQKFKDKATLTVDQSSTTAYMQLNSLTSEDSAVYYCARADVDYGDVMDYWGQGTTVTVSS VL: DIELTQSPAIMSASPGEKVTMTCSASSSVSYMHWYQQKSGTSPKRWIYDTSKLASGVPTRFSGSGSGTSYSLTISSMEAEDAATYYCQQWSSNPPTFGAGTKLELK
39600	65800	2.11 relative to IgG4	1.58 relative to IgG4	0.6	9.33 relative to IgG4	1.34 relative to IgG4	anti-Mac-1 antibody clone 25A04 (antibody, human IgG4, V domains shown) VH: EVQLVESGGGLVQPGGSLRLSCAASGFTFSFTAMHWVRQAPGKGLEWVSAIIYNGSEADYADSVKGRFTISRDNSKNTLYLQMNSLRAEDTAVYYCARANDYDHGCCDNYAMDYWGQGTLVTVSS VL: DIQMTQSPSSLSASVGDRVTITCRASQGIGSYLYWYQQKPGKAPKLLIYDASNLQSGVPSRFSGSGSGTDFTLTISSLQPEDFATYYCMQHGGWPLTFGQGTKVEIK
15000	16600	1.38 relative to IgG4	0.99 relative to IgG4	0.9	1.2 relative to IgG4	1.05 relative to IgG4	anti-Mac-1 antibody clone 27D06 (antibody, human IgG4, V domains shown) VH: QVKLQESGAEVVKPGASVKISCKASGYSFTDYNMNWVKQSNGKSLEWIGVINPNYGTTSYNQKFKGKATLTVDQSSSTAYMQLNSLTSEDSAVYYCARTYDYDGDAFAYWGQGTTVTVSS VL: DIELTQSPALMSASPGEKVTMTCRASSSVSSNNLHWYQQKSGASPKLWIYSTSNLATGAPARFSGSGSGTSYSLTISSMEAEDAATYYCQQWNSNPPTFGGGTKLEIK
36100	39800	0.88 relative to IgG4	1.05 relative to IgG4	0.91	0.78 relative to IgG4	0.7 relative to IgG4	anti-Mac-1 antibody clone 27A04 (antibody, human IgG4, V domains shown) VH: QVKLQQSGPELVKPGASVKISCKASGYSFTDYNMNWVKQSNGKSLEWIGVINPNYGTTSYNQKFKGKATLTVDQSSSTAYMQLNSLTSEDSAVYYCARTYDYDGDAFAYWGQGTTVTVSS VL: DIELTQSPAIMSASPGEKVTMTCSASSSVSYMHWYQQKSGTSPKRWIYDTSKLASGVPARFSGSGSGTSYSLTISSMEAEDAATYYCQQWSSNPPTFGAGTKLELK
43100	41100	1.14 relative to IgG4	1.11 relative to IgG4	1.05	1 relative to IgG4	0.89 relative to IgG4	anti-Mac-1 antibody clone 27G04 (antibody, human IgG4, V domains shown) VH: QVKLQESGPELVKPGASVKISCKASGYSFTDYNMNWVKQSNGKSLEWIGVINPNYGTTSYNQKFKGKATLTVDQSSSTAYMQLNSLTSEDSAVYYCARTFDYDDDAFAYWGQGTTVTVSS VL: DIELTQSPAIMSASPGEKVTITCSASSSVSDMHWYQQKSGTSPKRWIYDTSKLASGVPARFSGSGSGTSYSLTISNMEAEDAATYYCQQWSSNPPTFGAGTKLELK
64600	48000	0.88 relative to IgG4	1.04 relative to IgG4	1.35	0.88 relative to IgG4	0.85 relative to IgG4	anti-Mac-1 antibody clone 27A06 (antibody, human IgG4, V domains shown) VH: QVKLQQSGPELVTPGASVKISCKPSGYSFTDYNMNWVKQSNGKSLEWIGEINPNYGTTRHNQKFKGKASLTVDQSSSTAYMQLISLTSEDSAVYYCARTYDYDEDAFAYWGQGTTVTVSS VL: DIELTQSPAIMSASPGEKVTMTCSASSSVSYMHWYQQKSDTSPKRWIYDTSKLASGVPARFSGSGSGTSYSLTISSMEAEDAATYYCQQWSSNPPTFGAGTKLELK
4630	13000	3.87 relative to IgG4	1.13 relative to IgG4	0.36	3.77 relative to IgG4	1.48 relative to IgG4	anti-Mac-1 antibody clone DF4M-31 (antibody, human IgG4, V domains shown) VH: EVQLVESGGGLVQPGGSLRLSCAASGFTFTSATMSWVRQAPGKGLEWVSIISPGGSETYYADSVKGRFTISRDNSKNTLYLQMNSLRAEDTAVYYCARGGDYPSYYMDPWGQGTLVTVSS VL: DIQMTQSPSSLSASVGDRVTITCRASQSISNYLAWYQQKPGKAPKLLIYGTSSLQSGVPSRFSGSGSGTDFTLTISSLQPEDFATYYCQQGHQWPWTFGQGTKVEIK
28500	39400	3.5 relative to IgG4	1.92 relative to IgG4	0.72	16.8 relative to IgG4	1.74 relative to IgG4	anti-Mac-1 antibody clone 25A06 (antibody, human IgG4, V domains shown) VH: EVQLVESGGGLVQPGGSLRLSCAASGFTFSSYYMSWVRQAPGKGLEWVSTINYDGSEKDYADSVKGRFTISRDNSKNTLYLQMNSLRAEDTAVYYCARDRLGNYPWFDVWGQGTLVTVSS VL: DIQMTQSPSSLSASVGDRVTITCRASQSISNYLAWYQQKPGKAPKLLIYDANNLQSGVPSRFSGSGSGTDFTLTISSLQPEDFATYYCQQSYSWPLTFGQGTKVEIK
24400	35200	4.37 relative to IgG4	1.82 relative to IgG4	0.69	15.7 relative to IgG4	1.64 relative to IgG4	anti-Mac-1 antibody clone DF4-22 (antibody, human IgG4, V domains shown) VH: EVQLVESGGGLVQPGGSLRLSCAASGFTFTDYNVHWVRQAPGKGLEWVSGINSSGSETNYADSVKGRFTISRDNSKNTLYLQMNSLRAEDTAVYYCARDSVFKTVGGYDAVMDYWGQGTLVTVSS VL: DIQMTQSPSSLSASVGDRVTITCRASQSIYNYLAWYQQKPGKAPKLLIYGTSTLQSGVPSRFSGSGSGTDFTLTISSLQPEDFATYYCMQSYSSPTTFGQGTKVEIK
9940	23900	2.36 relative to IgG4	1.05 relative to IgG4	0.42	1.92 relative to IgG4	1.49 relative to IgG4	anti-Mac-1 antibody clone 24H01 (antibody, human IgG4, V domains shown) VH: EVQLVESGGGLVQPGGSLRLSCAASGFTFNNYYMSWVRQAPGKGLEWVSIIYYDGSEADYADSVKGRFTISRDNSKNTLYLQMNSLRAEDTAVYYCARNKDIYSVYGMDYWGQGTLVTVSS VL: DIQMTQSPSSLSASVGDRVTITCRASQSISNYLAWYQQKPGKAPKLLIYATSNLQSGVPSRFSGSGSGTDFTLTISSLQPEDFATYYCQQANNTPPTFGQGTKVEIK
